Data taken from the nanobody polyreactivity screen of Harvey et al. (2022).

Test: yeast display, Sf9 membrane polyspecificity reagent, FACS + sequencing; frameworks hold sequencing errors
Outline: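 A nanobody's polyreactivity label depends on the gate it was sorted from. Yeast display cells were stained with 10% biotinylated, detergent-solubilized Sf9 membrane reagent for 1 hour at 4 °C, enriched on streptavidin microbeads and sorted by FACS. The low and high (top ~1%) gates were set on anti-HA fluorescence for expression and streptavidin fluorescence for reagent binding.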

| Sequence | polyreactivity (PSR sort gate) |
| --- | --- |
| QVQLVESGGGLVQAGGSLRLSCAASGRIFKSYAMGWYRQAPGKERELVASITWSGGRTYYADSVKGRFTISRDNAKNTVYLQMNSLIPEDTAVYYCAARTYSYGSILKYYYWGQGTQVTVSS | high polyreactivity |
| QVQLVESGGGLVQAGGSLRLSCAASGNTFSQYAMGWYRQAPGKERELLAAISGSGGDTYYADSVKGRFTISRDNAKNTVYLQMNIMKPEDTAVYYCNADQESVFYEDYDYWGQGTQVTVSS | low polyreactivity |
| QVQLVESGGGLVQAGGSLRLSCAASGPTFRRYGMGWYRQAPGKERELVDAITTRGGSTYYADSVKGRFTISRDNAKNTVYLQMNSLKPEDTAVYYCAAPRKYFYSSATGNYWGQGTQVTVSS | high polyreactivity |
| QVQLVESGGGLVQAGGSLRLSCAASGIIFAYYAMGWYRQAPGKERELVAAMNRSGGTTYYADSVKGRFTISRDNAKNTLYLQMNSLKPEDTAVYYCNALTTWRYRYDYWGQGTQVTVSS | high polyreactivity |
| QVQLQESGGGLVQAGGSMRLSCAASGYFSNYYSLGLYRQAPGKERELVAGIGTGTSTYYADSVKGRFTISRDNAKNTVYQQMNSLKPEDTAVYYCAAPLDTSSRIFDYWGQGTQVTVSS | low polyreactivity |
| QVQLVESGGGLVQAGGSLRLSCAASGLTFYRNVMGWYRQAPGKERELVAVITSGGRTNYADSVKGRFTISRDNAKNTVYLQMNSLKPEDTAVYYCNTALSSRSNKMYYWGQGTQVTVSS | high polyreactivity |
| QVQLVESGGGLVQAGGSLRLSCAASGIIFYRNTMGWYRQAPGKERELVASISRGGSTNYADSVKGRFTISRDNAKNTVYLQMNSLKPEDTAVYYCAAYTYIPLSYYRGYTMDYWGQGTQVTVSS | low polyreactivity |
| QVQLVESGGGLVQAGGSLRLSCAASGFTFYRYAMGWYRQAPGKERELVASISWRGGNTYYADSVKGRFTISRDNAKNTVYLQMNSLKPEDTAVYYCAAGRSRIPSLLDYWGQGTQVTVSS | high polyreactivity |
| QVQLVESGGGLVQAGGSLRLICAASGSTIGTNAMGWYRQAPGKERELVAAISRSGGRTYYADSVKGRFTISRDNAKNTVYLQMNSLKPEDTAVYYCAKAGLYTEYDYWGQGTQVTVSS | high polyreactivity |
| QVQLVESGAGLDQAGGSLRLSSAASGNTFQYYAMGSYRQAAGKERELVASISYRGGRTYYADSVKGRFTISRDNAKYTVYLQMNSLKPADTAVYYCAKSKYTNVLYNYWGQGTQVTVSS | high polyreactivity |
| QVQLVESGGGLVQAGGSLRLSCAASGRIFPSYMGWYRQAPGKERELVARISNTGSTYYADSVKGRFTISRDNAKNTVYIQMNSLKPEDTAVYYCAAVYIFRVFSHPPYDYWGQGTQVTVSS | low polyreactivity |
| QVQLVESGGGLVQAGGSLRLSCAASGRTSYVYAMGWYRQAPGKERELVAAITSSGASTYYADSVKGRFTISRDNAKNTVYLQMNSLKPEDTAVFYCAAETYPVWGVAFYYWGQGTQVTVSS | high polyreactivity |
| QVQLVESGGGLVQAGGSLRLSCAASGPTFYYYAMGWYRQEPGKERELVAAIRVRGGSTYYADSVKGRFTISRDNAKNTVYLQMNSLKPEDTAVYYCAADHTFYGVHKYDYWGQGTQVTVSS | low polyreactivity |
| QVQLVESGGGLVQAGGSLRLRCAASGSIFNSYAMGWYRPAPGKERELVAAISIRGTRTYYADSVKGRFTISRDNAKNTVSLQMNSLKPEDSAVSYCAADASSTEGMDFWGQGTQLTVSS | high polyreactivity |
| QVQLVESGGGLVQAGGSLRLSCAASGNTFYRYAMGWNRQAPGKERELVAAISNGGSTNYADSVKGRFTISRDNAKNTVYLQMNSLKPEDSAVYYWAAANTRRYTHGFWGHGTQVTVSS | high polyreactivity |
| QVQLVESGGGLVQAGGSLRLSCAASGRIFDTNAMGWYRQAPGKERAFVAAISRSGGSTYYADSVKGRFTISRDNAKNTVYLQMNSLKPEDTAVYYCAARWYVLQPLGYDATHRKYYWGQGTQVTVSS | high polyreactivity |
| QVQLVESGGGLVQAGGSLRLSCAASGSIFNANAMGWYRQAPGKERELVAGIRSGSSTNYADSEKGRFTISRDNAKNTVYLQMNSLKPEDTAVYYCATEGYWVYGFDDEYWGQGTQVTVSS | low polyreactivity |
| QVQLVESGGGLVQAGGSLRLSCAASGSIFADYTMGWYRQAPGKEREVVAAITSGGSTYYADSVKGRFTISRDNAKNTVYLQMNSLKPEDTAVYYCAAYYGGRGYWGQGTQVTVSS | low polyreactivity |
| QVQLVESGGGLVQAGGSLRLSCAASGYTLRIYAMGWYRQAPGKERELVAAISRGGGTTRYADSVKGRFTISRDNAKNTVYLQMNSLKPEDTAVYYCNKDVYGYSRTGPRGYDYWGQGTQVTVSS | high polyreactivity |
| QVQLVESGGGLVQAGGSLRLSCAASGGIFYTYAMGWSRQAPGKERELVAAISARGGSTYYADSVKGRFTISRDIAKNTVYLQMNSLKPDDTAVYYCAAETYILLEYDYWGQGTQVTVSS | high polyreactivity |
| QVQLVESGGGLVQAGGSLRLSCAASGRIYWLYAMGWYRQAPGKERELVAAITGIGGSTYYADSVKVRFTISRDNAKNTVYLQMNSLKPEDTAVYYCAARNPASTAWMNYWGQGTQVNVSS | low polyreactivity |
| QGQLVESAGGLVQAGGSLRLSCAAYGRIFGINAMGWYRQAPGKERELVAASTGGGSTYADSVKGRVTISRDNAKNTVYLHMNSLKPEATAVYYCAARKIWSSIAYYYWGQGTQVTVSS | low polyreactivity |
| QVQLVESGGGLVQAGGSLRLICAASGRIFTSNAMGWYRQAPGKERELVAAISKSGGSTYYADSVKGRFTISRDNAKNTVYLQMNSLKPEDTAVYYCAAVPWRGFDYWGQGTQVTVSS | high polyreactivity |
| QVQLVESGGGLVQAGGSLRLSCAASGITFVTYAMGWYRQAPGKERELVAAISRSGGNTYYADSVKGRFTISRDNAKNTVYLQMNSLKPEDTAVYYCAAGGHRERDYWGQGTQVTVSS | high polyreactivity |
| QVQLVESGGGLVQAGGSLRLSCAASGRIFYYNGMGWYRQAPGKERELVAAIRWSGGSTRYADSVKGRFTISRDNAKNTVYLQMNSLKPEDTAVYYCAADGFYRWYPYKRYQFYYWGQGTQVTVSS | high polyreactivity |
| QVQLVESGGGLVQAGGSLRLRGAASGSTFIFNVRGWYRQAPGKERELVAVISWSGGSTYYADSVKGRFTISRDNAKNTVYLQMNSLKPEDTAVYYCARDQTFGPSPYDWYYYPGYDYWGQGTQVTVSS | low polyreactivity |
| QVQLVESGGGLVQAGGSLRLSCAASGRTSAINAMGWYRQAPGKERELVADITRTGGTYADSVKGRFTISRDNAKNTVYLQMNSLKPEDTAVYYCAAVGPWRFDYWGQGTQVTVSS | high polyreactivity |
| QVQLVESGGGLVQAGGSLRLICAASGRILYKNSMGWYRQAPAKEMQLVAAISSTAGYTYYADSLKGRFTISRDNAKNTVYLQMNSLKPEDTAVYYCAARRSGVKRRYDYWGQGTQVTVSS | low polyreactivity |
| QVQLVESGGGLVQAGGSLRLSCAASGNTFPVYAMGWYRQASGKERELVATITSGGSTNYADSVKGRFTISRDNAKNTVYLQMNSLKQEDTAVYYCARRAVYSKRRYDYWGQGTQVTVSS | low polyreactivity |
| QVQLVESGGGLFQAGGSLRLSCAASGSIFVGYAMGWYRQAPGKERELVAAITNSGGRTYYADSVKGRFTISRDNAKNTVYLQMNSLKPEDTAVYYCNRVTGKYRYWVGFEYWGQGTQVTVSS | high polyreactivity |
